Reference: IntAct's records for PubMed 16266891

Target: pim1_human PIM1 (UniProt P11309)

| Substance | effect of a mutation on the interaction |
| --- | --- |
| Small ribosomal subunit protein eS19 (Homo sapiens) (from UniProt P39019) R56Q | increasing interaction |
| Small ribosomal subunit protein eS19 (Homo sapiens) (from UniProt P39019) R62W | increasing interaction |
| Small ribosomal subunit protein eS19 (Homo sapiens) (from UniProt P39019) R101H | decreasing interaction |
